Target: NtFD1-Flag (Nicotiana tabacum)
Test: native gel or EMSA; extract of N. benthamiana leaves expressing NtFD1-Flag loaded directly onto a native PAGE gel, then western blotting; native protein marker GAPDH used for size

stoichiometry N: 4
Substance: NtFD1-Flag (natural protein)
